Results: patent CN117088968A (DONGGUAN PENGZHI BIOTECHNOLOGY CO LTD, dated 2023)

Columns and labels:
2019-nCoV N蛋白抗原 [1] = molecular target: T1, 2019-nCoV N蛋白抗原 (2019-nCoV (新型冠状病毒), UniProt P0DTC9 1-419); assay: AMC sensor, antibody captured at 10 μg/mL, N protein antigen in serial dilution in PBST
T1 construct: also called 新型冠状病毒N蛋白; 核衣壳蛋白(N蛋白)

2019-nCoV N蛋白抗原 [2] = molecular target: T1, 2019-nCoV N蛋白抗原

B1: 抗新型冠状病毒的IgG抗体9B54 (antibody)
heavy: EVLLQQSGPELVNPGASVKIPCKASGYTFTDYNMGWVKQSHGKSLEWIGAIIPNNGGTIYNQKFKGKATLTVDESSSTAYMELRSLTSEDTAVYYCAREAYRDYDVKTWFAYWGQGTLVTVSAAKTTPPSVYPLAPGSAAQTNSMVTLGCLVKGYFPEPVTVTWNSGSLSSGVHTFPAVLQSDLYTLSSSVTVPSSTWPSETVTCNVAHPASSTKVDKKIVPRDCGCKPCICTVPEVSSVFIFPPKPKDVLTITLTPKVTCVVVDISKDDPEVQFSWFVDDVEVHTAQTQPREEQFNSTFRSVSELPIMHQDWLNGKEFKCRVNSAAFPAPIEKTISKTKGRPKAPQVYTIPPPKEQMAKDKVSLTCMITDFFPEDITVEWQWNGQPAENYKNTQPIMDTDGSYFVYSKLNVQKSNWEAGNTFTCSVLHEGLHNHHTEKSLSHSPGK
light: DLQMTQTTSSLSASLGDRVTISCSASQGIRNYLNWYQQKPDGTVKLLIYYTSTLHSGVPSRFSGSGSGTDYSLTISNLEPEDIATYFCQQYSKFPYTFGGGTKLEIKRADAAPTVSIFPPSSEQLTSGGASVVCFLNNFYPKDINVKWKIDGSERQNGVLNSWTDQDSKDSTYSMSSTLTLTKDEYERHNSYTCEATHKTSTSPIVKSFNRNEC
Kd (2019-nCoV N蛋白抗原 [1]): 102 pM | koff (2019-nCoV N蛋白抗原 [1]): 0.000113 s⁻¹ | kon (2019-nCoV N蛋白抗原 [1]): 1.11e+06 M⁻¹ s⁻¹ | OD450 (ref. 630 nm) of cell supernatant diluted 1000-fold (2019-nCoV N蛋白抗原 [2]): > 1

B2: 抗新型冠状病毒的类IgM抗体8C21 (antibody)
heavy: EVLLQQSGPELVNPGASVKIPCKASGYTFTDYNMGWVKQSHGKSLEWIGAIIPNNGGTIYNQKFKGKATLTVDESSSTAYMELRSLTSEDTAVYYCAREAYRDYDVKTWFAYWGQGTLVTVSAAKTTPPSVYPLAPGSAAQTNSMVTLGCLVKGYFPEPVTVTWNSGSLSSGVHTFPAVLQSDLYTLSSSVTVPSSTWPSETVTCNVAHPASSTKVDKKIVPRDCPAVAEMNPNVNVFVPPRDGFSGPAPRKSKLICEATNFTPKPITVSWLKDGKLVESGFTTDPVTIENKGSTPQTYKVISTLTISEIDWLNLNVYTCRVDHRGLTFLKNVSSTCAASPSTDILTFTIPPSFADIFLSKSANLTCLVSNLATYETLNISWASQSGEPLETKIKIMESHPNGTFSAKGVASVCVEDWNNRKEFVCTVTHRDLPSPQKKFISKPNEVHKHPPAVYLLPPAREQLNLRESATVTCLVKGFSPADISVQWLQRGQLLPQEKYVTSAPMPEPGAPGFYFTHSILTVTEEEWNSGETYTCVVGHEALPHLVTERTVDKSTGKPTLYNVSLIMSDTGGTCY
light: DLQMTQTTSSLSASLGDRVTISCSASQGIRNYLNWYQQKPDGTVKLLIYYTSTLHSGVPSRFSGSGSGTDYSLTISNLEPEDIATYFCQQYSKFPYTFGGGTKLEIKRADAAPTVSIFPPSSEQLTSGGASVVCFLNNFYPKDINVKWKIDGSERQNGVLNSWTDQDSKDSTYSMSSTLTLTKDEYERHNSYTCEATHKTSTSPIVKSFNRNEC
notes: IgM-like antibody made by replacing part of the constant region of 9B54 with that of IgM
Kd (2019-nCoV N蛋白抗原 [1]): 31 pM | koff (2019-nCoV N蛋白抗原 [1]): 6.56e-05 s⁻¹ | kon (2019-nCoV N蛋白抗原 [1]): 2.11e+06 M⁻¹ s⁻¹
